The results in this text go back to the DeepSol protein solubility set.

This series is described as follows: soluble on expression in E. coli; label from the status in PepcDB or PDB records.
For the sequence “MSYNEKSEAIIKEEWLQRLEQFPFKQADMNRLIMNYLVTEGFKEAAEKFQHEADLEPSVELSSLDGRILIREAVQAGRIEEATQLVNQLHPELLGSDRYLFFHLQQLQLIELIRAGKVEEALSFAQSKLSESGEEAMFELERTLALLAFEKPQESPFADLLEQSYRQKIASELNSAILRCEQSEDSTPKMMFLLKLILWAQSKLDSRSISYPKMKNLETAHLEPKLEHHHHHH”, the “soluble on expression in E. coli” value was “not soluble”. Take “MNFVQPIRDPEQIQQLKDYFKEKSLRNYILFIMGINTGLRISDILKLKVGDVKGSHISMREEKTGKQKRIQITAALKRELKWFIEEREDNEYLLQSRQGRNRPIGRSMAYKILSGAAADFGLDEIGTHTLRKTYGYHMYMQTKNIALLMEIFNHSSEKVTLRYIGVNQDAMDKAMTRFKI”: the “soluble on expression in E. coli” value was “not soluble”. “MGSDKIHHHHHHMKASIEQLEPYVPEKPLATLQAELGLTELVRLSANENPYGTSPKVATAVKNWDFTQSNRYPDADAQELRQAVAQQQGIDPNSIVFSVGLDEMIVMLSRTFLATNDQVLVSAPTFSEYGLHAEIEGGQLISVPTLPNDHVNFEGLMKAITPHVKMVWLCNPNNPTGTVESLAAIEAFVQQVPPETMVLIDEAYIDFTPGAAQVTAMQLPAKYPNVVVMRTFSKAYGLANFRIGYAVFNTKYAATMQTIRLPYNVNSLAQVAALAAIDDPNFVKQTVQKNATERAKWMAFFDDQGVTYDQSGANFIFFKYPSATQLADYLVHHGYLIRTGLRPGWLRLTVGTANDNQQLQQLIREFKA”: the “soluble on expression in E. coli” value was “not soluble”. In the case of “MQIVEAIYEDGVLKLLKNLKLKEHSKVIIKVIDEEEIEKILDSRDYLEHHHHHH”, the “soluble on expression in E. coli” value was “not soluble”.

Consider “MVSRKRRAAQIESSRKGVASIRARCDMEASCSSSQENEASRASTSQCSSPKNLKMENVTILPKTLKLIHDDPKSQVIVSIQFEIEDTKKKISAAILNFNISKKANNAIRSERKRIVATILKTRKHVERFRRLWKKEKKKKEHSEILYKKSQLSKQETIAKFPPMFR”, for which the “soluble on expression in E. coli” value is reported as “not soluble”.

With “MSLVPAFPHSTSPTTTVIAVPPALSLPVIETDFPRQLHPYWPRLQEKTRSWLLEKRLMPADKVEEYADGLCYTDLMAGYYIGAPDEVLQAIADYSAWFFVWDDRHDRDVIHRRATAWRQLRFQLHTALDSPRDHLHHRDPLVAGFADSMVRLYSFLGKKWNARFACHFHAVIEAYDREFHNRTRGIVPTVEEYLELRRLTFAHRIWTDLLEPSARHEIPAGVREHPGYRRAALLSQEFAAWYNDLCSLPKEIAGDEVHNLGISLIHHEGLTLEEAVTEVRRRVEECIAEFLVAEKEAVHLADGLADGTRAGHELSDAVKACVANMRNWFSTVYWFHHESGRYRVDSWDDRSTPPYVNNEAAGEGHHHHHH”, the “soluble on expression in E. coli” value is “soluble”.

As to “MKYPTIIDSQQLFREPDHPLKAGLDPKCRSTKPLCPDTFAKVMKTIDTFIFDADGVLWLGESVMPGSPRLIDYLVKHNKQIIVLTNNATKSRAVYAKKLAKLGYNSSKMNKNNLVNPAAVVADTLHRAGLDGKRVYLIGEQGLRDEMDELGIEYFGHGPEKKQDEADGSGAFMYDIKLEENVGAVVVGYEKHFDYIKMMKASNYLREEGVLFVATNEDETCPGPNPEVVIPDAGPIVAAIKCASGRDPLTVGKPCTPAFNYIKRKWNINPSRTMMIGDRTNTDVKFGRDHGMKTLLVLSGCHQIEDIIENQMNERDDMVPDYVAPCLGALVPERI”, the “soluble on expression in E. coli” value is given as “not soluble”. Next, “MTSSDSNVDPGLGIAVDLGTTTLAASLVDLSSGERLASAGSLNPQREFGADVVSRLDAACRSGEALQRMAALVREELYRLAARLLDSAGEARDRLRMVAVAGNPAMEHLLLGLPVVRLAYPPYRPLFSTSTHISAADLGWDLSGRVALFPLPGGFVGGDTVAFLFGVPDVCAPCPGPRLFLDMGTNGEMVLQCGDVLLGTSAAAGPAFEGGGLACGMAALPGAVNGIIRDGDRVRVTTIGGGQPLGICGSAVLDTVALLLEEGLLDSTGRLLPPEEIASPVGARMGTVGGEPAFILHRDAARTIYLSQGDIRQVQLAKGAIRAGMEVLCERARIRCEDIEEVVLTGSFGAVLSPRSLKFIGIFTEKMVQTTRFVREGALAGAERALTAPEGFEAVDRLARALRVIPLSGTPAFEKHFLKHIDFPSRLEHHHHHH”: “soluble”; “MYYGIKALTVGRGESVRAKITTTIEEALLNKAKALAKQEGLSGANAIIERALELYFTSIQSEVWEKSLSSGWIKKLVLKRDSILYENIKCRKTMENCRPDDYTPESLKAKGWKKV”: “not soluble”.
